Source: publication PMC4750872

Biological target: gankyrin (UniProt O75832)
Test: ITC

Sequence of UniProt O75832 (O75832 whole entry): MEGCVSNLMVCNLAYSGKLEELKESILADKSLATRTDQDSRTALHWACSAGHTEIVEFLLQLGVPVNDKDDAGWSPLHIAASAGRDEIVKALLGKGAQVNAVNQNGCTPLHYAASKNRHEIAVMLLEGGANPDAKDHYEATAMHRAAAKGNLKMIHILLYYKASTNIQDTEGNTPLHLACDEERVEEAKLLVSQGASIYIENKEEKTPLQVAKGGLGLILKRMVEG

- dH: -29 kcal/mol
Substance: FtsH-S6 ATPase
